Experiments:
[1] = target: complement Factor D (fD) (Homo sapiens) (UniProt P00746); assay: flow; details: 2'-F G, 2'-OMe A,C,U, 37 C
[2] = target: complement Factor D (fD) in C1q-depleted human serum (Homo sapiens) (UniProt P00746); assay: inhibition; details: hemolysis; non-specific control oligo
[3] = target: complement Factor D (fD) (Homo sapiens) (UniProt P00746); assay: inhibition; details: control oligo
[4] = SB1T, 100 nM AFD Fab reduces signal about 75-90%

Chain of complement Factor D (fD) (Homo sapiens) (P00746 26-253): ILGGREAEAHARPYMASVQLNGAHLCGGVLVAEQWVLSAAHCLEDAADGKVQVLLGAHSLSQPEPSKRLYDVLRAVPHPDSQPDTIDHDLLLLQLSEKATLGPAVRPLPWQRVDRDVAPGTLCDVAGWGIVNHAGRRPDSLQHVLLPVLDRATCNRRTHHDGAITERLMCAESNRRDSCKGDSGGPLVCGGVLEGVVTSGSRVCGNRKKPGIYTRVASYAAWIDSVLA
Chain of complement Factor D (fD) in C1q-depleted human serum (Homo sapiens) (P00746 26-253): as above

For “GGGAGUGUGUACGAGGCAUUAGGCCGCCNNNNNNNNNNNNNNNNNNNNNNNNNNNNNNGGCGGCUUUGAUACUUGAUCGCCCUAGAAGC [N30S library round 7]”, the Kd [1, 4] was 45.1 nM.
For “GGGAGUGUGUACGAGGCAUUAGGCCGCCNNNNNNNNNNNNNNNNNNNNNNNNNNNNNNGGCGGCUUUGAUACUUGAUCGCCCUAGAAGC [N30S library round 8]”, the Kd [1, 4] was 8.8 nM.
In the case of C8 non-specific control oligo, the IC50 [2] is reported as > 160 nM and the activity (% esterase activity) [3] is reported as 105.
“GGGAGUGUGUACGAGGCAUUAGGCCGCCNNNNNNNNNNNNNNNNNNNNNNNNNNNNNNGGCGGCUUUGAUACUUGAUCGCCCUAGAAGC [N30S library round 6]” was tested, and the Kd ([1]; SB1T with BSA and ssDNA, bead-immobilized fD) was 34.4 nM.

Reference: patent US20190032056
